Reference: the supplement of paper PMC9876800

System: peptide library, one residue held at a place counted from the S/T acceptor
Assay: relative phosphorylation of the sub-library (ratio to the mean residue at this position); higher = residue favoured
Details: human
How it was run: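 In 384-well plates, purified recombinant kinases (human or orthologue constructs) were incubated for 90 min under kinase-specific conditions with 50 μM biotinylated degenerate peptide sub-libraries and 50 μM ATP spiked with γ-32P-ATP. Each sub-library fixed a single residue at one position around a central Ser/Thr. Relative sub-library phosphorylation, measured by phosphorimaging and densitometry of streptavidin membrane spots, is given as a ratio to the mean residue at that position.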

MKNK2, construct: Full length (from UniProt Q9HBH9)
relative phosphorylation
Details | at +1 | at +2 | at +3 | at +4 | at -1 | at -2 | at -3 | at -4 | at -5
A fixed | 0.742 | 1 | 0.937 | 0.945 | 1.12 | 0.903 | 0.8 | 1.28 | 1.23
D fixed | 0.22 | 0.453 | 0.406 | 0.728 | 0.37 | 0.24 | 0.239 | 0.284 | 0.221
E fixed | 0.385 | 0.465 | 0.433 | 0.79 | 0.369 | 0.24 | 0.449 | 0.359 | 0.272
F fixed | 1.36 | 0.807 | 0.936 | 0.895 | 0.555 | 0.439 | 0.453 | 0.721 | 0.949
G fixed | 0.506 | 0.739 | 1.58 | 1.08 | 1.04 | 0.958 | 1.53 | 1.54 | 1.05
H fixed | 1.06 | 1.71 | 1.32 | 1.22 | 1.24 | 0.874 | 1.07 | 1.02 | 0.898
I fixed | 1.35 | 0.818 | 0.664 | 0.756 | 0.417 | 0.368 | 0.365 | 0.716 | 1.11
K fixed | 1.02 | 0.875 | 1.89 | 1.62 | 3.14 | 2.06 | 3.1 | 1.75 | 1.4
L fixed | 1.17 | 0.781 | 0.923 | 0.745 | 0.741 | 0.421 | 0.439 | 0.909 | 1.47
M fixed | 1.73 | 0.915 | 0.942 | 0.849 | 0.887 | 0.427 | 0.617 | 0.898 | 0.976
N fixed | 0.667 | 0.797 | 0.76 | 0.94 | 0.96 | 0.956 | 0.847 | 0.911 | 0.648
P fixed | 0.24 | 0.44 | 0.931 | 1.21 | 0.284 | 0.571 | 1.48 | 1.58 | 1.49
Q fixed | 1.59 | 0.904 | 1.1 | 1.13 | 1.2 | 0.835 | 0.957 | 0.884 | 0.767
R fixed | 1.19 | 1.29 | 1.34 | 1.05 | 2.77 | 6.1 | 3.21 | 1.79 | 1.23
V fixed | 1.19 | 0.981 | 0.703 | 0.861 | 0.566 | 0.5 | 0.401 | 0.749 | 1.47
W fixed | 1.17 | 1.39 | 0.974 | 1.16 | 0.531 | 0.491 | 0.475 | 0.713 | 0.876
Y fixed | 1.41 | 2.63 | 1.15 | 1.03 | 0.818 | 0.615 | 0.574 | 0.899 | 0.942
pThr fixed | 0.649 | 0.492 | 0.516 | 0.736 | 0.203 | 0.304 | 0.47 | 0.562 | 0.572
pTyr fixed | 0.783 | 0.714 | 0.604 | 0.782 | 0.285 | 0.356 | 0.568 | 0.647 | 0.642
